Test results as given in US20180273632A1 (BIOCEROX PRODUCTS B V, published 2018).
One block for each molecule: values may come before it.

How the values were obtained:
[1] = molecular target: T1, human CD134 (full-length, on cells) (human, UniProt P43489 29-277); experiment: flow cytometry, PHA-stimulated human T lymphocytes, two donors
T1 construct: also called OX40; TNFRSF4
T1 sequence: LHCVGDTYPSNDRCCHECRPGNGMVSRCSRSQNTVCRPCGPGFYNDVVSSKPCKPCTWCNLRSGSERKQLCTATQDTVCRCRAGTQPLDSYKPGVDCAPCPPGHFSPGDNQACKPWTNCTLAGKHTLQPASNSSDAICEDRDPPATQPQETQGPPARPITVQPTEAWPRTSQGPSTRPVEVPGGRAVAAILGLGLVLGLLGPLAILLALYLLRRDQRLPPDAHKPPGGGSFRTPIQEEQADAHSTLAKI
Protocol: PHA-stimulated (at 10 μg/mL for 2 days; see above) human CD134 expressing T lymphocytes were generated. Cells were harvested and put at 1-2×10⁶ cells/mL in ice chilled PBS/BSA/NaN₃ supplemented with 10% HPS (blocking Fcγ receptors; BioWhittaker). […] After extensive washing in PBS/BSA/NaN₃, cells were subsequently incubated with 1:200 diluted PE-conjugated goat anti-mouse IgG antibodies (Jackson ImmunoResearch) for 30 minutes at 4° C. […] After extensive washing in PBS/BSA/NaN₃, cells were fixed in 2% formaldehyde in PBS/BSA/NaN₃ for 30 minutes at 4° C.

[2] = molecular target: T1, human CD134 (full-length, on cells); experiment: flow cytometry, PHA-stimulated human T lymphocytes
[3] = molecular target: T1, human CD134 (full-length, on cells); experiment: flow cytometry, PHA-stimulated human CD4 positive T lymphocytes
Protocol: PHA-stimulated (at 10 μg/mL for 1 day; see above) human CD134 expressing T lymphocytes were generated. Cells were harvested and put at 1-2×10⁶ cells/mL in ice-chilled PBS/BSA/NaN3. […] After extensive washing in PBS/BSA/NaN₃, cells were subsequently incubated with 1:50 diluted FITC-conjugated mouse anti-human IgG4 antibodies (Sigma) for 30 minutes at 4° C. […] After extensive washing in PBS/BSA/NaN₃, cells were fixed in 2% formaldehyde in PBS/BSA/NaN₃ for 30 minutes at 4° C.

[4] = molecular target: T2, human fibronectin-derived control peptide (extra type III structural domain) (human); experiment: ELISA, plate coated with 10 ng/well control peptide, HRP goat anti-mouse IgG Fcγ, n=1
T2 construct: Synthesized by Pepscan Presto; coated on ELISA plates at 10 ng/well; also called ED1 peptide
T2 peptide: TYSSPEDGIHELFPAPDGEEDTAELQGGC
Protocol: (§1) Ninety six-wells flat-bottom ELISA plates (Corning) were coated with 10 ng/well human CD134-derived peptide (synthesized by Pepscan Presto, Lelystad, The Netherlands), which corresponded to amino acid sequence of truncated CRD3 A1-module-CRD4 subdomain A1-module (see SEQ ID NO. 38) or with 10 ng/well human fibronectin-derived control peptide (synthesized by Pepscan Presto, Lelystad, The Netherlands), which corresponded to amino acid sequence of extra type III structural domain (see SEQ ID NO. 37) in PBS o/n at 4° C. After extensive washing in PBS/0.05% Tween 20, plates were blocked in PBS/0.05% Tween 20/1% BSA fraction V (Roche) for 1 hour at RT. […] After extensive washing in PBS/0.05% Tween 20, binding of antibodies was determined with 1:5000 diluted horseradish peroxidase-conjugated goat anti-mouse IgG Fcγ-specific antibodies (Jackson ImmunoResearch) for 1 hour at RT, followed by a ready-to-use solution of TMB substrate (lnvitrogen) for colorimetric detection. After adding 1 M H₂SO₄, optical densities was measured at a wavelength of 450 nm (reference wavelength of 655 nm) using a microplate reader (BioRad).

[5] = molecular target: T3, 'truncated (tc) CRD4' construct of human CD134 (amino acids 147-277 linked to signal peptide amino acids 1-28) (human, UniProt P43489 147-277); experiment: flow cytometry on 293-F cells transiently transfected with the construct, PE goat anti-mouse IgG (Fcγ) [cont.]
T3 construct: also called truncated CRD4
T3 sequence: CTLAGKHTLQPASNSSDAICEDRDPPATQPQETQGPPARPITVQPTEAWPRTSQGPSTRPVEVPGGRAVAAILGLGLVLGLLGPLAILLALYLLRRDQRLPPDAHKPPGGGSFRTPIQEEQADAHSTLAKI
Protocol: (§2) After 48-72 h, surface human CD134 expression on transfected cells was analyzed by FACS analysis. To this end, transfected cells were harvested and put at 1-2×10⁶ cells/mL in ice-chilled PBS/BSA/NaN₃. […] After extensive washing in PBS/BSA/NaN₃, cells were subsequently incubated with 1:200 diluted PE-conjugated goat anti-mouse IgG (Fcγ specific) antibodies (Jackson ImmunoResearch) for 30 minutes at 4° C. After extensive washing in PBS/BSA/NaN₃, cells were fixed in 2% formaldehyde in PBS/BSA/NaN₃ for 30 minutes at 4° C.

[6] = molecular target: T4, human CD134-derived peptide (truncated CRD3 A1-module-CRD4 subdomain A1-module, amino acids 108-146) (human); experiment: ELISA, plate coated with 10 ng/well huCD134 peptide, HRP goat anti-mouse IgG Fcγ, n=1
T4 construct: Synthesized by Pepscan Presto; coated on ELISA plates at 10 ng/well
T4 peptide: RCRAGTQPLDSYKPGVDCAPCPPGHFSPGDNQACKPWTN
Protocol: as §1

[7] = molecular target: T2, human fibronectin-derived control …; experiment: ELISA, plate coated with 10 ng/well control peptide, HRP goat anti-human IgG Fcγ, n=1
Protocol: as §1, with “anti-human” for “anti-mouse”, “(invitrogen)” for “(lnvitrogen)”

[8] = molecular target: T3, 'truncated (tc) CRD4' construct of …; experiment: flow cytometry on 293-F cells transiently transfected with the construct, PE goat anti-human IgG (Fcγ) [cont.]
Protocol: as §2, with “PBS/BSA/NaN3.” for “PBS/BSA/NaN₃.”, “anti-human” for “anti-mouse”

[9] = molecular target: T4, human CD134-derived peptide (truncated …); experiment: ELISA, plate coated with 10 ng/well huCD134 peptide, HRP goat anti-human IgG Fcγ, n=1
Protocol: as §1, with “anti-human” for “anti-mouse”, “(invitrogen)” for “(lnvitrogen)”

Molecule: commercially available mouse anti-human CD134 antibody clone ACT35 (BD Biosciences)
EC50 [1]: 2.5 µg/mL
saturating concentration [2]: 5 µg/mL

B2: chimeric human IgG4κ anti-human CD134 antibody clone 20E5 (antibody, V domains shown)
VH: EVQLQQSGPELVKPGASVKMSCKASGYTFTSYVMHWVKQKPGQGLEWIGYINPYNDGTKYNEKFKGKATLTSDKSSSTAYMELSSLTSEDSAVYYCANYYGSSLSMDYWGQGTSVTVSS
VL: DIQMTQTTSSLSASLGDRVTISCRASQDISNYLNWYQQKPDGTVKLLIYYTSRLHSGVPSRFSGSGSGTDYSLTISNLEQEDIATYFCQQGNTLPWTFGGGTKLEIKR
notes: also called hu20E5
EC50 [3]: ~1 µg/mL

B3: mouse anti-human CD134 monoclonal antibody clone 12H3 (antibody, mouse IgG1, V domains shown)
VH: EVQLQQSGPELVKPGASVKISCKTSGYTFKDYTMHWVKQSHGKSLEWIGGIYPNNGGSTYNQNFKDKATLTVDKSSSTAYMEFRSLTSEDSAVYYCARMGYHGPHLDFDVWGAGTTVTVSP
VL: DIVMTQSHKFMSTSLGDRVSITCKASQDVGAAVAWYQQKPGQSPKLLIYWASTRHTGVPDRFTGGGSGTDFTLTISNVQSEDLTDYFCQQYINYPLTFGGGTKLEIKR
notes: also called m12H3
EC50 [1]: 0.5 µg/mL
binding result [4]: no binding (tested: 50 µg/mL)
binding result [5]: no binding (tested: 20.0 µg/mL)
binding result [6]: binds

The next lines start with the values.

EC50 [1]: 2.5 µg/mL
B1: mouse anti-human CD134 monoclonal antibody clone 20E5 (antibody, mouse IgG1, V domains shown)
VH: B2 VH
VL: B2 VL
notes: also called m20E5

binding result [7]: no binding (tested: 50 µg/mL)
binding result [8]: no binding (tested: 20.0 µg/mL)
binding result [9]: binds
B4: chimeric human IgG4κ anti-human CD134 monoclonal antibody clone 12H3 (antibody, V domains shown)
VH: B3 VH
VL: B3 VL
